Consider 1 molecule from patent publication US20070066522A1 (MICHIGAN STATE UNIVERSITY, published 2007).

For the experiment, the target named is T1, c-Cbl (endogenous, in PH3MT cell lysates) (human, UniProt P22681 1-906).
T1 construct: also called c-Cbl E3 ubiquitin ligase; CB1
Briefly: method not described; Ras-transformed cells.

B1: Sprouty2 (endogenous, in PH3MT human fibroblast lysates) (other)
chain: MEARAQSGNGSQPLLQTPRDGGRQRGEPDPRDALTQQVHVLSLDQIRAIRNTNEYTEGPTVVPRPGLKPAPRPSTQHKHERLHGLPEHRQPPRLQHSQVHSSARAPLSRSISTVSSGSRSSTRTSTSSSSSEQRLLGSSFSSGPVADGIIRVQPKSELKPGELKPLSKEDLGLHAYRCEDCGKCKCKECTYPRPLPSDWICDKQCLCSAQNVIDYGTCVCCVKGLFYHCSNDDEDNCADNPCSCSQSHCCTRWSAMGVMSLFLPCLWCYLPAKGCLKLCQGCYDRVNRPGCRCKNSNTVCCKVPTVPPRNFEKPT
notes: Endogenous protein of the H-Ras-transformed human fibroblast strain PH3MT; also called Spry2; human Sprouty-2
B1: the binding result was “binds”.
